In assay [1] the target is T1, soluble human TREM2 (sTREM2) (human, UniProt Q9NZC2 19-157).
T1 construct: also called soluble TREM2; TREM2 ectodomain
T1 sequence: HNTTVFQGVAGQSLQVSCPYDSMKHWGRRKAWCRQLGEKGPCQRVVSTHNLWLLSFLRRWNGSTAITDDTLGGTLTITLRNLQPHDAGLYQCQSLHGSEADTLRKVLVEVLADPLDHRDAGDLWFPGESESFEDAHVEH
As to the kind of experiment: sandwich ELISA: test antibody coated as capture, sTREM2 from BMDM culture supernatant, biotinylated 3.17A9 as detection; normalised to 1.16B8. The text has this: For example, as shown in an Example 11 herein, the human TREM2 ELISA assay measured binding of antibodies to sTREM2 by coating onto plate wells the antibody to be tested as capture reagents and with biotinylated IgV-reactive monoclonal antibody 3.17A9 used as the detection reagent. Control antibody 1.16B8 was used as a positive control antibody to establish the standard for sTREM2 binding.
A human TREM2 ELISA assay was used to measure binding of more than forty antibodies to soluble TREM2 (sTREM2) as follows: test anti-hTREM2 antibodies were coated onto plate wells as capture reagents and a biotinylated IgV-reactive monoclonal antibody, 3.17A9, was used as the detection reagent. Antibody 1.16B8 was used as a control antibody to establish the standard for sTREM2 binding. Plates coated with test or control antibody were incubated with diluted culture supernatant from bone marrow-derived macrophage (BMDM) cultures from transgenic mice expressing hTREM2. sTREM2 is constitutively produced by the BMDM cultures expressing hTREM2 and shed into the culture supernatant. Measurements were recorded at 450 nm for detection and 570 nm for background. The 3.17A9/1.16B8 antibody pair was selected over reagents provided in the R&D Systems kit as the commercial reagents were not compatible with sTREM2 detection of some of the antibodies tested. Control antibody 1.16B8 light chain sequence is shown in SEQ ID NO: 170, and its heavy chain sequence is shown in SEQ ID NO: 171.

Assay [2] concerns the target T2, human TREM2-Fc (human, UniProt Q9NZC2 19-174).
T2 construct: also called hTREM2; not shown: Fc part (captured by anti-human IgG1 Fc or protein A)
T2 sequence: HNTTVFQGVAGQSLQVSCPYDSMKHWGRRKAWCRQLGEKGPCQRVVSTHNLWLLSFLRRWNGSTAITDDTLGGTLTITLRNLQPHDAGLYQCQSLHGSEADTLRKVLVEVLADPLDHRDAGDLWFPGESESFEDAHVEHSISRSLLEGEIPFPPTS
As to the kind of experiment: SPR (Biacore T200), 37 C; TREM2-Fc on protein A chip, soluble Fab. How it is done:
(§1) Affinity of h3.10C2.v1 (FIGS. 9A-B) for human and cynomolgus TREM2 was determined by SPR in a Biacore™ T200 apparatus in two formats, both at 37° C. In one format TREM2-Fc was immobilized on protein A chips and soluble anti-TREM2 Fab fragments used as ligands. In the second format, anti-TREM2 IgG was immobilized on anti-CH1 Biacore™ chips and used soluble monomeric TREM2 as ligand.
On the technique in general: SPR reads the build-up and loss of mass on a sensor chip optically.

Assay [3] concerns the target T3, cynomolgus TREM2-Fc (cynomolgus monkey, UniProt A0A2K5UY34 49-204).
T3 construct: also called cyno TREM2; not shown: Fc part
T3 sequence: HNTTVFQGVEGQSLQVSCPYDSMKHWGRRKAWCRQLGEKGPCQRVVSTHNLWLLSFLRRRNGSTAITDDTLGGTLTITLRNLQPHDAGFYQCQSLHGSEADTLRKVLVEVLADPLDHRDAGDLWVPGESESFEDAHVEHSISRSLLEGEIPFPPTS
The description is as above. As for the experimental part:
as §1

Assay [4] addresses T2, human TREM2-Fc. As to the kind of experiment: SPR (Biacore T200), 37 C; TREM2-Fc on protein A chip, Fab in solution. How it is done:
The humanized heavy chain variants were tested for affinity by combining the heavy chain variants with the 3.10C2-L1 light chain. These variants were expressed as Fab fragments, purified by protein A chromatography, and tested for affinity for TREM2-Fc coated on a protein A chip with a Biacore™ T200 apparatus.

In assay [5] the target is T2, human TREM2-Fc. In words: SPR (Biacore T200), 37 C; TREM2-Fc on anti-human IgG1 Fc chip, Fab in solution. As for the experimental part:
(§2) Briefly, clone variants were expressed as Fab fragments and purified by anti-CH1 affinity chromatography followed by size exclusion chromatography. TREM2-Fc antigens were immobilized on anti-human IgG1 Fc Biacore™ chips and soluble Para.09 variant and 3.10C2 clone Fab fragments were bound to immobilized TREM2 at 37° C.

In assay [6] the target is T3, cynomolgus TREM2-Fc. Described as above. As for the experimental part:
as §2

A further assay concerns the target T4, human TREM2 on cells (human, UniProt Q9NZC2 19-230).
T4 sequence: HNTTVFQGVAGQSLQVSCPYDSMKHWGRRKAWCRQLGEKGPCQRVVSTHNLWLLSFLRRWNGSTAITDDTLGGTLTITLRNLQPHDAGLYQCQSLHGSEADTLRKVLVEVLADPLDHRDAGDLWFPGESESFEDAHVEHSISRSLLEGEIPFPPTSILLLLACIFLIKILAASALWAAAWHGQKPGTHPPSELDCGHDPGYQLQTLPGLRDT
In words: cell-based or functional assay.

The next assay addresses T5, 159-175 (also: biotinylated (site not given here)).
T5 construct: member of the group m13
T5 peptide: ISRSLLEGEIPFPPTSI
As to the kind of experiment: peptide ELISA with IgG, grey-scale heat map of OD650nm. A general note: In an ELISA, binding on a coated surface is turned into a signal by an enzyme label.

Where no end group is shown, it is not given here.

B1: rat 3.18E5 mIgG2a LALAPG (antibody, V domains shown)
VH: EVQLVETGGSLVQPGKSLKLTCATSGFPFSNVWMHWVRQSPEKQLEWIAHIKAKSDNYATYYAESVKGRFTISRDDSKTTIYLQMNSLKEADTAIYYCTGLDYWGQGVMVTVSS
VL: DTVLTQAPLSVSVTPGESASISCRSNKSLLGIRDITSLYWYLQKPGKSPQLLIYRMSNLASGVPDRFSGSGSETDFTLKISEVETEDVGVYYCAQFLRYPYTFGPGTKLELK
notes: Mouse IgG2a LALAPG constant region
With B1, the binding result in assay [1] was “no binding”.

B2: 3.10C2 Fab (Fab, V domains shown)
VH: EVQLVETGGSLVQPGKSLKLTCATSGFPFSNVWMHWVRQSPEKQLEWIAHIKAKSDNYATYYAESVKGRFTISRDDSKTSIYLQMNSLKEDDTAIYYCTGLDYWGQGVMVTVSS
VL: DTVLTQAPLSLSVTPGESASISCRSSKSLLGVRDITSLYWYLQKPGKSPQLLIYRMSNLASGVPDRFSGSGSETDFTLKISEVETEDVGVYYCAQFLRYPYTFGPGTKLELK
notes: also called 3.10C2 (3.10C2); Rat3.10C2
A word on the Kd: it is the concentration at which binding is half-saturated. Lower therefore signals tighter binding. Broadly, the koff is the first-order rate constant of dissociation. A word on the kon: it is a measure of how fast the partners come together. Higher therefore signals faster complex formation. On to B2, for which the dissociation constant Kd with human TREM2-Fc [2] was found to be 0.19 nM; in the assay with cynomolgus TREM2-Fc [3] it was 0.22 nM; with human TREM2-Fc [5], 0.2 nM; with cynomolgus TREM2-Fc [6], 0.22 nM. For the same molecule, the koff with human TREM2-Fc [2] was 0.00018 s⁻¹; with cynomolgus TREM2-Fc [3], 0.0002 s⁻¹; with human TREM2-Fc [4], 0.00019 s⁻¹; with human TREM2-Fc [5], 0.00017 s⁻¹; in the assay with cynomolgus TREM2-Fc [6] it was 0.00015 s⁻¹. Besides, the kon in the assay with human TREM2-Fc [2] was 910000 M⁻¹ s⁻¹; with cynomolgus TREM2-Fc [3] it was 910000 M⁻¹ s⁻¹; with human TREM2-Fc [4], 720000 M⁻¹ s⁻¹; with human TREM2-Fc [5], 850000 M⁻¹ s⁻¹; with cynomolgus TREM2-Fc [6] it was 680000 M⁻¹ s⁻¹.

B3: rat 3.50G1 mIgG2a LALAPG (antibody, V domains shown)
VH: EVQLVETGGSLVQPGKSLKLTCATSGFPFSNVWMHWVRQSPEKQLEWIAHIKAKSDNYATYYAESVKGRFTISRDDSKTSIYLQMNSLKDDDTAIYYCTGLDYWGQGVMVTVSS
VL: DTVLTQAPLSVSVTPGESASISCRSNKSLLGIRDITSLYWFLQKPGKSPQLLIYRMSNLASGVPDRFSGSGSETDFTLKISEVETEDVGVYYCAQFLRYPYTFGPGTKLELQ
notes: as for B1
Regarding B3, the binding result in assay [1] was “no binding”.

B4: rat 3.10C2 mIgG2a LALAPG (antibody, V domains shown)
VH: EVQLVETGGSLVQPGKSLKLTCATSGFPFSNVWMHWVRQSPEKQLEWIAHIKAKSDNYATYYAESVKGRFTISRDDSKTSIYLQMNSLKEDDTAIYYCTGLDYWGQGVMVTVSS
VL: DTVLTQAPLSLSVTPGESASISCRSSKSLLGVRDITSLYWYLQKPGKSPQLLIYRMSNLASGVPDRFSGSGSETDFTLKISEVETEDVGVYYCAQFLRYPYTFGPGTKLELK
notes: also called Rat 3.10C2 mIgG1a LALAPG
On to B4, for which, in the assay with human TREM2 on cells, the “EC50, Jurkat NFAT luciferase reporter cells” value was found to be 0.28 µg/mL. For the same molecule, the binding result in assay [1] is “no binding”.

B5: rat Para.09- LC 3.27H7 mIgG2a LALAPG (antibody, V domains shown)
VH: EVQLVETGGSLVQPGKSLRLTCATSGFPFSNVWLHWVRQSPEKHPEWVAHIKAKSDNYATYYAESVKGRFTISRDDSKSSVFLQMNSLKEEDTAIYYCTDILEYWGQGTLVTVSS
VL: DVVLTQAPLSVSVTPGESASISCRSSRSLLTSKGITSLYWYLQKPGMSPHLLIYRMSNLASGIPDRFSGSGSETDFTLKISEVEPEDVGVYYCAQFLVYPYTFGAGTKLELKR
notes: Mouse IgG2a LALAPG constant region; also called Rat para.09 mIgG2a LALAPG; Para.09. mIgG2a LALAPG
Take B5: the “EC50, Jurkat NFAT luciferase reporter cells” value with human TREM2 on cells was 0.04 µg/mL. Further, the binding result in assay [1] is on record as “no binding”.

B6: Para.09 IgG with the 3.18E5 light chain (antibody, V domains shown)
VH: EVQLVETGGSLVQPGKSLRLTCATSGFPFSNVWLHWVRQSPEKHPEWVAHIKAKSDNYATYYAESVKGRFTISRDDSKSSVFLQMNSLKEEDTAIYYCTDILEYWGQGTLVTVSS
VL: DTVLTQAPLSVSVTPGESASISCRSNKSLLGIRDITSLYWYLQKPGKSPQLLIYRMSNLASGVPDRFSGSGSETDFTLKISEVETEDVGVYYCAQFLRYPYTFGPGTKLELK
For the molecule B6, the binding result with 159-175 is “no binding”.

B7: Para.09 IgG with the 3.10C2 light chain (antibody, V domains shown)
VH: EVQLVETGGSLVQPGKSLRLTCATSGFPFSNVWLHWVRQSPEKHPEWVAHIKAKSDNYATYYAESVKGRFTISRDDSKSSVFLQMNSLKEEDTAIYYCTDILEYWGQGTLVTVSS
VL: DTVLTQAPLSLSVTPGESASISCRSSKSLLGVRDITSLYWYLQKPGKSPQLLIYRMSNLASGVPDRFSGSGSETDFTLKISEVETEDVGVYYCAQFLRYPYTFGPGTKLELK
With B7, the binding result in the assay with 159-175 is on record as “no binding”.

B8: Para.09 IgG with the 3.50G1 light chain (antibody, V domains shown)
VH: EVQLVETGGSLVQPGKSLRLTCATSGFPFSNVWLHWVRQSPEKHPEWVAHIKAKSDNYATYYAESVKGRFTISRDDSKSSVFLQMNSLKEEDTAIYYCTDILEYWGQGTLVTVSS
VL: DTVLTQAPLSVSVTPGESASISCRSNKSLLGIRDITSLYWFLQKPGKSPQLLIYRMSNLASGVPDRFSGSGSETDFTLKISEVETEDVGVYYCAQFLRYPYTFGPGTKLELQ
Consider B8, for which, in the assay with 159-175, the binding result is reported as “no binding”.

B9: rat 3.27H7 mIgG2a LALAPG (antibody, V domains shown)
VH: EVQLVETGGSLVQPGGSLKLTCATSGFPFSNVWLHWIRRSPEKQLEWVAQIKARSDNYATYYAESVKGRFIVSRDDSKTTIYLQMNNLKEEDTAIYYCTGLDYWGQGVMVTVSS
VL: DVVLTQAPLSVSVTPGESASISCRSSRSLLTSKGITSLYWYLQKPGMSPHLLIYRMSNLASGIPDRFSGSGSETDFTLKISEVEPEDVGVYYCAQFLVYPYTFGAGTKLELK
notes: as for B1
Take B9: the binding result in assay [1] is “no binding”.

B10: 3.10C2-H4/3.10C2-L1 Fab (Fab, V domains shown)
VH: EVQLVESGGGLVQPGGSLKLSCAASGFPFSNVWMHWVRQASGKGLEWIGHIKAKSDNYATYYAESVKGRFTISRDDSKNTIYLQMNSLKTEDTAVYYCTGLDYWGQGTTVTVSS
VL: DTVLTQSPLSLPVTPGEPASISCRSSKSLLGVRDITSLYWYLQKPGQSPQLLIYRMSNLASGVPDRFSGSGSETDFTLKISRVEAEDVGVYYCAQFLRYPYTFGQGTKVEIK
For B10, in the assay with human TREM2-Fc [4], the koff came to 0.024 s⁻¹ and the kon stood at 1.2e+06 M⁻¹ s⁻¹.

B11: 3.10C2-H7/3.10C2-L1 Fab (Fab, V domains shown)
VH: EVQLVESGGGLVQPGGSLKLSCATSGFPFSNVWMHWVRQASGKGLEWVAHIKAKSDNYATYYAESVKGRFTISRDDSKNTAYLQMNSLKTEDTAVYYCTGLDYWGQGTTVTVSS
VL: DTVLTQSPLSLPVTPGEPASISCRSSKSLLGVRDITSLYWYLQKPGQSPQLLIYRMSNLASGVPDRFSGSGSETDFTLKISRVEAEDVGVYYCAQFLRYPYTFGQGTKVEIK
For B11, in the assay with human TREM2-Fc [4], the koff was found to be 0.018 s⁻¹ and the on-rate (kon) amounted to 1.2e+06 M⁻¹ s⁻¹.

Source of the values: patent US20220389097A1 (Genentech, published 2022).
